Values joined by “and” are separate entries in the source; they are usually repeats but may differ in a detail not shown here. Equal values may be shown once.
Columns and labels:
[1] = biological target: T1, recombinant MARV glycoprotein (MARV (marburgvirus, Ravn), UniProt Q1PDC7 19-648); test: maximal binding from ELISA dose-response fit
T1 sequence: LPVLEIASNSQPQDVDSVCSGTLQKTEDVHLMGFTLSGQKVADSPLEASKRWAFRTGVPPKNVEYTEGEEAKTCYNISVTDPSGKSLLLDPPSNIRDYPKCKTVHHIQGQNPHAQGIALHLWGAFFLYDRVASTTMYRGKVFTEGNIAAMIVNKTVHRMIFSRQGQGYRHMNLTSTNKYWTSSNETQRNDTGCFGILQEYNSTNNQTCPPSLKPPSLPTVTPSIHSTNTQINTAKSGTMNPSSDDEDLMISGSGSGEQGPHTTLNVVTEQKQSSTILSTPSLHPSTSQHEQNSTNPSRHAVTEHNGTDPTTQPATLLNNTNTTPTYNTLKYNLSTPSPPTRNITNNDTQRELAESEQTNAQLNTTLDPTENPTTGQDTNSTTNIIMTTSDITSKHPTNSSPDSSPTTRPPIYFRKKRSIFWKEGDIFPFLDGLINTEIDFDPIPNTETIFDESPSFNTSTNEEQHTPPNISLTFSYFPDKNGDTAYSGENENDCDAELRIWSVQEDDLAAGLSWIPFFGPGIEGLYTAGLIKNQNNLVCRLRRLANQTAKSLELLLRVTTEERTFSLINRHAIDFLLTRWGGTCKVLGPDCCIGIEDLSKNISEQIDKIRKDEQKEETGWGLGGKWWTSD

[2] = biological target: T2, recombinant SUDV glycoprotein (SUDV (Sudan ebolavirus), UniProt Q7T9D9 33-650); test: ELISA dose response, GP coated
T2 sequence: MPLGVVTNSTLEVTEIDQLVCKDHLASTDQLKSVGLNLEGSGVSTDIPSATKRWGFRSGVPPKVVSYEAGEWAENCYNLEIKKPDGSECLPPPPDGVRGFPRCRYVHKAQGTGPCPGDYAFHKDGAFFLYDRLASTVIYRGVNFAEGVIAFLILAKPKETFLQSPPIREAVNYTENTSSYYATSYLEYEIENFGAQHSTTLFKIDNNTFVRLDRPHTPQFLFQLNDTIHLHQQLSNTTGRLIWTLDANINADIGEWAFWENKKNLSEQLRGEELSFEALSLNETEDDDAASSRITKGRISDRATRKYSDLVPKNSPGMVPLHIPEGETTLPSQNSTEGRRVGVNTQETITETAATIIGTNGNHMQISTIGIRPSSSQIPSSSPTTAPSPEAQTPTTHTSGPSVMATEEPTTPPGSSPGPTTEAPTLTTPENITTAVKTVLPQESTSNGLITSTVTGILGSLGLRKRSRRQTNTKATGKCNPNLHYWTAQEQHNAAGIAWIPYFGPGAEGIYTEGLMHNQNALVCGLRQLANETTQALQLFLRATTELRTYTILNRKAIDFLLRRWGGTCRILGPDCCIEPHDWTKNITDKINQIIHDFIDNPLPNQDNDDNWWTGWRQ

[3] = biological target: T3, recombinant TAFV glycoprotein (TAFV (Tai Forest virus), UniProt Q66810 33-650); test: ELISA dose response, GP coated
T3 sequence: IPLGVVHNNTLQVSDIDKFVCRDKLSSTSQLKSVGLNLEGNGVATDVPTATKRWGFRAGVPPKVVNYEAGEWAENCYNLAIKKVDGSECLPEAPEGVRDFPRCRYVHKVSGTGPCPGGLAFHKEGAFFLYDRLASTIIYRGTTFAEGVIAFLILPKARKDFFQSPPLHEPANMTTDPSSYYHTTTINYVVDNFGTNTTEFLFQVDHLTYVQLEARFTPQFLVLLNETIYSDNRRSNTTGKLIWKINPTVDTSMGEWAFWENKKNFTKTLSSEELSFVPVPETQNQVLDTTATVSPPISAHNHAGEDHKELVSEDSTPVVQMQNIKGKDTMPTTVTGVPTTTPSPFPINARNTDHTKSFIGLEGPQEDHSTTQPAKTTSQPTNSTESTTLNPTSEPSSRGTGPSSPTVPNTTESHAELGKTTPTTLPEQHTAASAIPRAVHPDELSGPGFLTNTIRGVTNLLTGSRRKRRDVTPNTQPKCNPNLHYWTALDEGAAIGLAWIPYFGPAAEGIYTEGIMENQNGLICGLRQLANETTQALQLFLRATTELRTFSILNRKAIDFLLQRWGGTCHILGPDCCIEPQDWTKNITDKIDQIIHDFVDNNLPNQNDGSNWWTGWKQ

[4] = biological target: T4, recombinant RESTV glycoprotein (RESTV (Reston ebolavirus), UniProt Q66799 34-651); test: ELISA dose response, GP coated
T4 sequence: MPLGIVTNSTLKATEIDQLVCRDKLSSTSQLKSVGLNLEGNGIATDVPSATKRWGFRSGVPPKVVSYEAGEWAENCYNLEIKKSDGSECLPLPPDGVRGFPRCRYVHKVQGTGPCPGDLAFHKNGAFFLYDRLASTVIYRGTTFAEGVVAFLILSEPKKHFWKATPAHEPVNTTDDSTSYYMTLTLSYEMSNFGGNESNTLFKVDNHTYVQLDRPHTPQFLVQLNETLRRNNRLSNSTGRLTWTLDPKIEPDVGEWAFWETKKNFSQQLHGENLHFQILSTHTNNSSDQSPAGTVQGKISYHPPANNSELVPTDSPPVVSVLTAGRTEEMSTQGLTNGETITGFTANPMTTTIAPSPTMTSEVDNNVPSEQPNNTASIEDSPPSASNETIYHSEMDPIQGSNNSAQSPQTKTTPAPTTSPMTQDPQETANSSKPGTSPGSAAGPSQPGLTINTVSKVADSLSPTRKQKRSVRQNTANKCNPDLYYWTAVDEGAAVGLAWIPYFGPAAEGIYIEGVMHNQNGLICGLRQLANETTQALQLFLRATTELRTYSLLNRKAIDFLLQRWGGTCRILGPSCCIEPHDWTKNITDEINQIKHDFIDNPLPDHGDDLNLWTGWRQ

[5] = biological target: T1, recombinant MARV glycoprotein; test: ELISA dose response, GP coated

B1: EbovGPscFv4-2 (scFv)
scFv: MAWSHPQFEKTGSGGAELVKSGASVKLSCTASGFNIKDDYMHWVKQRPEQGLEWIGWIDPENGDTEYASKFQGKATITADTSSNTAYLQLSSLTSEDTAVYYCTTYYYGSAWFAYWGQGTLVTVSAGGGGSGGGGSGGGGSGGGGSASLSVSVGETVTITCRASGNIHNYLAWYQQKQGKSPQLLVYNAKTLADGVPSRFSGSGSGTQYSLKINNLQPEDFGSYYCQHFWSTPYTFGGGTKLEIKRADAAPTVSIFPPSSEQLTSGGASVVCFLNNFTHCQELQQDECS
[1]
  Bmax signal: 380000 relative absorbance units
[2]
  EC50: 5.3 µg/mL and < 9 µg/mL
[3]
  EC50: < 9 µg/mL and 6.95 µg/mL
[4]
  EC50: < 9 µg/mL and 7.44 µg/mL
[5]
  EC50: 4.51 µg/mL and < 9 µg/mL

Reference: patent US20230212268A1 (UNM RAINFOREST INNOVATIONS, published 2023)
